Experimental data as given in the Immune Epitope Database (IEDB).

Columns and labels:
HLA-B*15:01 [1] = assay: IEDB peptide-MHC binding, purified MHC/competitive/fluorescence; filed as Kd, often an IC50 or EC50 that approximates it; ≥ and ≤ were set here for values at or beyond the usual limits of such assays
HLA-B*08:01 = assay: IEDB peptide-MHC binding, purified MHC/competitive/radioactivity; filed as Kd, often an IC50 or EC50 that approximates it; ≥ and ≤ were set here for values at or beyond the usual limits of such assays; conditions: source organism: Dengue virus 3 Martinique/1243/1999
HLA-B*51:01 = assay: as above
HLA-A*26:01 [2] = assay: IEDB peptide-MHC binding, purified MHC/direct/fluorescence; filed as Kd, often an IC50 or EC50 that approximates it; ≥ and ≤ were set here for values at or beyond the usual limits of such assays; conditions: source organism: Salmonella enterica subsp. enterica serovar Typhimurium
HLA-A*24:02 [3] = assay: IEDB peptide-MHC binding, purified MHC/competitive/fluorescence; ≥ and ≤ were set here for values at or beyond the usual limits of such assays; conditions: source organism: Zaire ebolavirus
HLA-A*32:01 = assay: IEDB peptide-MHC binding, purified MHC/competitive/radioactivity; filed as Kd, often an IC50 or EC50 that approximates it; ≥ and ≤ were set here for values at or beyond the usual limits of such assays
HLA-B*15:01 [4] = assay: as above
HLA-A*01:01 = assay: as above
HLA-A*30:02 = assay: as above
HLA-A*23:01 = assay: as above
HLA-A*24:02 [5] = assay: as above
HLA-A*26:01 [6] = assay: as above
HLA-A*29:02 = assay: as above
HLA-B*40:01 = assay: as above
HLA-B*44:02 = assay: as above
HLA-A*30:01 = assay: as above; conditions: source organism: Mammarenavirus brazilense
HLA-B*44:03 = assay: as above; conditions: source organism: Dengue virus 3 Martinique/1243/1999
HLA-A*02:01 = assay: IEDB peptide-MHC binding, purified MHC/competitive/fluorescence; ≥ and ≤ were set here for values at or beyond the usual limits of such assays; conditions: source organism: Zaire ebolavirus
HLA-A*03:01 = assay: IEDB peptide-MHC binding, purified MHC/competitive/radioactivity; filed as Kd, often an IC50 or EC50 that approximates it; ≥ and ≤ were set here for values at or beyond the usual limits of such assays; conditions: source organism: SARS coronavirus Tor2
HLA-A*11:01 = assay: as above; conditions: source organism: SARS coronavirus Tor2
HLA-A*31:01 = assay: as above; conditions: source organism: SARS coronavirus Tor2
HLA-A*33:01 = assay: as above; conditions: source organism: SARS coronavirus Tor2
HLA-A*68:01 = assay: as above; conditions: source organism: SARS coronavirus Tor2
[7] = source organism: Dengue virus 3 Martinique/1243/1999
[8] = source organism: Vaccinia virus Copenhagen
[9] = source organism: Dengue virus 2 Peru/IQT2913/1996
[10] = source organism: SARS coronavirus Tor2
[11] = source organism: Vaccinia virus WR
[12] = source organism: Mammarenavirus whitewaterense
[13] = source organism: Mammarenavirus brazilense
[14] = source organism: Dengue virus 2 Jamaica/1409/1983
[15] = source organism: Dengue virus 3 Singapore/8120/1995
[16] = source organism: Lymphocytic choriomeningitis virus (strain Armstrong)

In the case of GMMDGWYGF, the Kd (HLA-B*15:01 [1]; source organism: Influenza A virus (A/Queensland/11/2001(H3N2))) is reported as 0.0219 µM.
Sequence FFQVIAKRY has a Kd (HLA-B*15:01 [1]; source organism: Yersinia pestis Antiqua) of at least 20 µM.
In the case of LATLRKLCI, the Kd (HLA-B*08:01) is reported as 0.359 µM and the Kd (HLA-B*51:01; [7]) is reported as 2.53 µM.
For RVKLGLGIM, the Kd (HLA-A*26:01 [2]) was 1.3 µM.
Sequence LPLPWTSGA has a Kd (HLA-B*51:01; source organism: Dengue virus 1 Brazil/97-11/1997) of 0.926 µM.
Sequence ECLPAAPDG has an IC50 (HLA-A*24:02 [3]) of at least 394 µM.
Work on LILSCIFAF yielded a Kd (HLA-A*32:01; [8]) of 0.427 µM and a Kd (HLA-B*15:01 [4]; [8]) of 0.543 µM.
Work on FTMRHKKATY yielded a Kd (HLA-A*01:01; [9]) of 1.26 µM, a Kd (HLA-A*30:02; [9]) of at least 43.4 µM and a Kd (HLA-B*15:01 [4]; [9]) of 0.138 µM.
In the case of SPTVEESRTI, the Kd (HLA-B*51:01; [7]) is reported as 3.78 µM.
In the case of GSVGFNIDY, the Kd (HLA-A*01:01; [10]) is reported as 5.64 µM, the Kd (HLA-A*23:01; [10]) is reported as at least 77.8 µM and the Kd (HLA-A*24:02 [5]; [10]) is reported as at least 77.6 µM. The Kd (HLA-A*26:01 [6]; [10]) was 10.2 µM, the Kd (HLA-A*29:02; [10]) was 0.177 µM and the Kd (HLA-A*30:02; [10]) was 1.66 µM.
Work on VFFGYFASHF yielded a Kd (HLA-A*01:01; [10]) of 12.9 µM, a Kd (HLA-A*23:01; [10]) of 0.000595 µM and a Kd (HLA-A*24:02 [5]; [10]) of 0.00463 µM. For the same sequence, the Kd (HLA-A*26:01 [6]; [10]) was 4.13 µM, the Kd (HLA-A*29:02; [10]) was 0.000261 µM and the Kd (HLA-A*30:02; [10]) was 2.82 µM.
With QLAMTDTTPF the Kd (HLA-B*15:01 [4]; source organism: Dengue virus 4 Philippines/H241/1956) was 0.00234 µM.
Sequence NYTQHTSSM has a Kd (HLA-A*01:01; [10]) of at least 57 µM, a Kd (HLA-A*23:01; [10]) of at least 81.7 µM and a Kd (HLA-A*24:02 [5]; [10]) of at least 91.8 µM. The Kd (HLA-A*26:01 [6]; [10]) was 16.3 µM, the Kd (HLA-A*29:02; [10]) was at least 45.2 µM and the Kd (HLA-A*30:02; [10]) was at least 81.1 µM.
Work on LLHRCIYHY yielded a Kd (HLA-B*15:01 [4]; [11]) of 0.0429 µM.
Sequence WDIKDPSLL has a Kd (HLA-A*01:01; [12]) of at least 42.3 µM, a Kd (HLA-A*23:01; [12]) of at least 77.7 µM and a Kd (HLA-A*24:02 [5]; [12]) of at least 77.5 µM. The Kd (HLA-A*26:01 [6]; [12]) was at least 77.9 µM, the Kd (HLA-A*29:02; [12]) was at least 27.6 µM and the Kd (HLA-A*30:02; [12]) was at least 34.8 µM.
VDICFWSTL gave a Kd (HLA-A*01:01; [13]) of 12 µM, a Kd (HLA-A*23:01; [13]) of 7.57 µM and a Kd (HLA-A*24:02 [5]; [13]) of 5.63 µM. For the same sequence, the Kd (HLA-A*26:01 [6]; [13]) was at least 77.9 µM, the Kd (HLA-A*29:02; [13]) was at least 78.9 µM and the Kd (HLA-A*30:02; [13]) was 9.76 µM.
In the case of RIKQRGILGY, the Kd (HLA-A*30:02; [14]) is reported as 0.0204 µM and the Kd (HLA-B*15:01 [4]; [14]) is reported as 0.0466 µM.
For LEKASFIEV, the Kd (HLA-B*40:01; [15]) was 1.04 µM and the Kd (HLA-B*44:02; [15]) was 9.57 µM.
In the case of VEDSRFWEL, the Kd (HLA-B*40:01; [14]) is reported as 4.28 µM.
With EGIYIEGLM the IC50 (HLA-A*24:02 [3]) was at least 154 µM.
AFKVPGVKTV showed a Kd (HLA-A*01:01; [16]) of at least 70.4 µM, a Kd (HLA-A*23:01; [16]) of at least 70 µM and a Kd (HLA-A*24:02 [5]; [16]) of at least 70.3 µM. The Kd (HLA-A*26:01 [6]; [16]) was at least 69.7 µM, the Kd (HLA-A*29:02; [16]) was 6.96 µM and the Kd (HLA-A*30:02; [16]) was 6.59 µM.
Sequence FNATKFPSVY has a Kd (HLA-A*01:01; [10]) of at least 56.3 µM, a Kd (HLA-A*23:01; [10]) of at least 70 µM and a Kd (HLA-A*24:02 [5]; [10]) of at least 70.3 µM. It also gave a Kd (HLA-A*26:01 [6]; [10]) of at least 24.5 µM, a Kd (HLA-A*29:02; [10]) of 3.04 µM and a Kd (HLA-A*30:02; [10]) of 1.21 µM.
LAVWNRVWI gave a Kd (HLA-B*51:01; [14]) of 4.95 µM.
For SLKSLYEAF, the Kd (HLA-B*15:01 [4]; [11]) was 0.0203 µM.
Work on KVNACHHNY yielded a Kd (HLA-A*01:01; [13]) of 3.84 µM, a Kd (HLA-A*26:01 [6]; [13]) of at least 77.9 µM and a Kd (HLA-A*29:02; [13]) of 0.115 µM. It also gave a Kd (HLA-A*30:01) of 0.501 µM, a Kd (HLA-A*30:02; [13]) of 0.0117 µM and a Kd (HLA-A*32:01; [13]) of 0.445 µM.
KEISNMLSI was tested, and the Kd (HLA-A*32:01; [7]) was 6.37 µM, the Kd (HLA-B*40:01; [7]) was 0.00644 µM and the Kd (HLA-B*44:02; [7]) was 0.0282 µM. It also gave a Kd (HLA-B*44:03) of 0.0218 µM.
LIWKVNPEI was tested, and the IC50 (HLA-A*02:01) was 0.426 µM and the IC50 (HLA-A*24:02 [3]) was 1.31 µM.
Sequence SADSFLLML has an IC50 (HLA-A*02:01) of at least 613 µM and an IC50 (HLA-A*24:02 [3]) of at least 177 µM.
In the case of WCSQTSYQYL, the Kd (HLA-A*01:01; [16]) is reported as 1.04 µM, the Kd (HLA-A*23:01; [16]) is reported as 8.29 µM and the Kd (HLA-A*24:02 [5]; [16]) is reported as 15.9 µM. For the same sequence, the Kd (HLA-A*26:01 [6]; [16]) was at least 69.7 µM, the Kd (HLA-A*29:02; [16]) was 19 µM and the Kd (HLA-A*30:02; [16]) was at least 29.6 µM.
In the case of VLYSYILFL, the Kd (HLA-B*15:01 [4]; [8]) is reported as 0.559 µM.
Sequence SMMGFKMNY has a Kd (HLA-A*01:01; [10]) of 3.96 µM, a Kd (HLA-A*03:01) of 0.00489 µM and a Kd (HLA-A*11:01) of 0.0106 µM. For the same sequence, the Kd (HLA-A*23:01; [10]) was 7.55 µM, the Kd (HLA-A*24:02 [5]; [10]) was 9.36 µM and the Kd (HLA-A*26:01 [6]; [10]) was 3.9 µM. It also gave a Kd (HLA-A*29:02; [10]) of 0.0139 µM, a Kd (HLA-A*30:02; [10]) of 0.0103 µM and a Kd (HLA-A*31:01) of 0.213 µM. The Kd (HLA-A*33:01) was 0.775 µM and the Kd (HLA-A*68:01) was 10.6 µM.
